Experimental data reported in patent US20240229081.

Test system: Nla type I-C Cascade-Cas3 in E. coli (Neisseria lactamica)
Assay: cell_activity
Details: PAM TTC; E. coli plasmid interference

## Nla native CRISPR spacer 1 crRNA ; spacer 1 target with TTC PAM, plasmid
  activity: 1000 fold
